We go through 10 molecules from patent US20190328788A1 (GENAGON THERAPEUTICS, published 2019).

The labels stand for the following.
T1: transforming growth factor-beta 2 (TGF-β2) (UniProt P61812 303-414)
T1 construct: also called TGFb2; TGFB2
T1 sequence (looked up): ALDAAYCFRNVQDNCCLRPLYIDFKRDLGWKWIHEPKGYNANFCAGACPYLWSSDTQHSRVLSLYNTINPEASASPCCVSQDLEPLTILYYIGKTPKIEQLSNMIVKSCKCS

T2: Growth and Differentiation Factor 15 (GDF15) (UniProt Q99988 197-308, limits assumed)
T2 construct: also called MIC-1; MIC1
T2 sequence (looked up): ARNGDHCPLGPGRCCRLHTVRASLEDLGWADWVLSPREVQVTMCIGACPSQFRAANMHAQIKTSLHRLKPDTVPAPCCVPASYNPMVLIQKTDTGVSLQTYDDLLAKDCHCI

T3: transforming growth factor-beta 3 (TGF-β3) (UniProt P10600 301-412)
T3 construct: also called TGFb3; TGFB3
T3 sequence (looked up): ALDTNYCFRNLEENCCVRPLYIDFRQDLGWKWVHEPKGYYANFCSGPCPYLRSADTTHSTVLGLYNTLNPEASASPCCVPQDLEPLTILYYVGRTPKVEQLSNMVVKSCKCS

B1: CLPTM1 peptide fragment of SEQ ID NO: 22 (peptide)
peptide: NDYWNLQKDYYPINESLASLG
modifications: also: biotinylated, site not given here
B2: CLPTM1 peptide fragment of SEQ ID NO: 26 (peptide)
peptide: LWRWQLYAAQSTKSPWNFLGG
modifications: also: biotinylated, site not given here
B3: CLPTM1 peptide fragment of SEQ ID NO: 30 (peptide)
peptide: RNLFPKDTLMNLHVYISEHEG
modifications: also: biotinylated, site not given here
B4: CLPTM1 peptide fragment of SEQ ID NO: 25 (peptide)
peptide: YEQSDEEQDSVKVALLETNPG
modifications: also: biotinylated, site not given here
B5: CLPTM1 peptide fragment of SEQ ID NO: 28 (peptide)
peptide: GDYYPIIYFNDYWNLQKDYYG
modifications: also: biotinylated, site not given here
notes: also called peptide 21
B6: CLPTM1 peptide fragment of SEQ ID NO: 31 (peptide)
peptide: FTDFNATSALFWEQHDLVYGG
modifications: also: biotinylated, site not given here
B7: CLPTM1 peptide fragment of SEQ ID NO: 27 (peptide)
peptide: YPINESLASLPLRVSFCPLSG
modifications: also: biotinylated, site not given here
notes: also called peptide 20
B8: CLPTM1 peptide fragment of SEQ ID NO: 29 (peptide)
peptide: WQVIKGVLFRIFIIWAISSWG
modifications: also: biotinylated, site not given here
B9: CLPTM1 peptide fragment of SEQ ID NO: 23 (peptide)
peptide: PLRVSFCPLSLWRWQLYAAQG
modifications: also: biotinylated, site not given here
B10: CLPTM1 peptide fragment of SEQ ID NO: 24 (peptide)
peptide: STKSPWNFLGDELYEQSDEEG
modifications: also: biotinylated, site not given here

Ends that are not written are not given here.

In the first assay the target is T4, transforming growth factor-beta 1 (TGF-β1) (UniProt P01137 279-390).
T4 construct: also called TGFb1; TGFB1
T4 sequence (P01137 279-390 limits assumed): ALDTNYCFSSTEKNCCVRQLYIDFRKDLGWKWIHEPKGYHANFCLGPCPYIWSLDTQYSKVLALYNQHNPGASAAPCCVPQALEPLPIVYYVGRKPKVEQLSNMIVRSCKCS
The assay can be described thus: ELISA, peptide on streptavidin plate, ligand 100 ng/ml. How it is done: (§1) Biotinylated synthetic peptide fragments from CLPTM1 (JPT peptides, Germany) were immobilized in a streptavidin 96 well plate (#15500 Pierce) at 1 μM in PBS over night at +4° C. Plate was then washed 4 times in 300 μl PBS with 0.05% tween-20 (wash buffer). The plate was then blocked with PBS 1% BSA and 0.05% tween-20 (blocking buffer) for 1.5 hours at room temperature, then washed 4 times in wash buffer. Ligands GDF15, TGFb1, TGFb2 and TGFb3 (Abcam) were added in blocking buffer at 100 ng/ml and incubated at room temperature for 2 hours. The plate was then washed 8 times in 300 μL wash buffer with 2× NaCl. An anti-GDF15 antibody was added at 1 μg/ml (R&D Systems, goat polyclonal) or a pan-specific anti-TGFb antibody (R&D Systems, mouse 1 D11), and the plate incubated in blocking buffer for 1 hour at room temperature followed by washing with 4×300 μl wash buffer. HAF017 anti-goat-HRP antibody (to detect the anti-GDF15 antibody) or Santa Cruz sc-2005 Goat anti-mouse-HRP (to detect the pan-specific anti-TGFb antibody) was added and the plate incubated for 1 hour in blocking buffer followed by a wash. TMB substrate was added and stopped after 15 minutes with H₂SO₄. OD 450-620 was measured in an ELISA reader.
(In general: ELISA stands for enzyme-linked immunosorbent assay.)
B1: the “ELISA OD450” value was 0.017 OD450.

Take B2: the “ELISA OD450” value was determined as 0.013 OD450.

For B3, the “ELISA OD450” value came out at 0.015 OD450.

With B4, the “ELISA OD450” value was 0.01 OD450.

With B5, the “ELISA OD450” value turned out to be 1.54 OD450.

Turning to B6, the “ELISA OD450” value stood at 0.032 OD450.

For B7, the “ELISA OD450” value worked out at 0.043 OD450.

For the molecule B8, the “ELISA OD450” value was 0.01 OD450.

Consider B9, for which the “ELISA OD450” value came out at 0.083 OD450.

With B10, the “ELISA OD450” value amounted to 0.018 OD450.

For a further assay, the target named is T1, transforming growth factor-beta 2 …. Described as above. The method, then:
as §1
Turning to B1, the “ELISA OD450” value amounted to 0.005 OD450.

Take B2: the “ELISA OD450” value is 0.008 OD450.

As for B3, the “ELISA OD450” value worked out at 0.009 OD450.

B4: the “ELISA OD450” value was found to be 0.007 OD450.

On to B5, for which the “ELISA OD450” value was determined as 0.164 OD450.

In the case of B6, the “ELISA OD450” value was 0.014 OD450.

Take B7: the “ELISA OD450” value was found to be 0.025 OD450.

In the case of B8, the “ELISA OD450” value worked out at 0.006 OD450.

Turning to B9, the “ELISA OD450” value was determined as 0.066 OD450.

On to B10, for which the “ELISA OD450” value turned out to be 0.007 OD450.

The next assay deals with T2, Growth and Differentiation Factor 15 …. The description is as above. How it is done:
as §1
Consider B1, for which the “ELISA OD450” value was 0.038 OD450.

In the case of B2, the “ELISA OD450” value came out at 0.033 OD450.

Take B3: the “ELISA OD450” value is 0.055 OD450.

On to B4, for which the “ELISA OD450” value turned out to be 0.022 OD450.

On to B5, for which the “ELISA OD450” value is 0.507 OD450.

Regarding B6, the “ELISA OD450” value amounted to 0.061 OD450.

For B7, the “ELISA OD450” value was 0.22 OD450.

As for B8, the “ELISA OD450” value came to 0.023 OD450.

For the molecule B9, the “ELISA OD450” value turned out to be 0.063 OD450.

For the molecule B10, the “ELISA OD450” value stood at 0.053 OD450.

The next assay deals with T3, transforming growth factor-beta 3 …. The description is as above. The method, then:
as §1
Turning to B1, the “ELISA OD450” value turned out to be 0.025 OD450.

For B2, the “ELISA OD450” value was 0.011 OD450.

B3: the “ELISA OD450” value worked out at 0.041 OD450.

Turning to B4, the “ELISA OD450” value is 0.014 OD450.

Turning to B5, the “ELISA OD450” value is 0.151 OD450.

In the case of B6, the “ELISA OD450” value turned out to be 0.029 OD450.

Regarding B7, the “ELISA OD450” value was found to be 0.018 OD450.

With B8, the “ELISA OD450” value was 0.019 OD450.

For B9, the “ELISA OD450” value stood at 0.016 OD450.

Consider B10, for which the “ELISA OD450” value was determined as 0.012 OD450.
